The target in the assay is Shroom2 ASD2 domain (UniProt Q13796). Put plainly: pull-down of Ala mutants. The note with it: reference: Scrib-C wild type; sites S1508.

Data on 1 substance can be found in paper PMC4477863.

UniProt Q13796, sequence (Q13796 whole entry, looked up, the tested form may be a part): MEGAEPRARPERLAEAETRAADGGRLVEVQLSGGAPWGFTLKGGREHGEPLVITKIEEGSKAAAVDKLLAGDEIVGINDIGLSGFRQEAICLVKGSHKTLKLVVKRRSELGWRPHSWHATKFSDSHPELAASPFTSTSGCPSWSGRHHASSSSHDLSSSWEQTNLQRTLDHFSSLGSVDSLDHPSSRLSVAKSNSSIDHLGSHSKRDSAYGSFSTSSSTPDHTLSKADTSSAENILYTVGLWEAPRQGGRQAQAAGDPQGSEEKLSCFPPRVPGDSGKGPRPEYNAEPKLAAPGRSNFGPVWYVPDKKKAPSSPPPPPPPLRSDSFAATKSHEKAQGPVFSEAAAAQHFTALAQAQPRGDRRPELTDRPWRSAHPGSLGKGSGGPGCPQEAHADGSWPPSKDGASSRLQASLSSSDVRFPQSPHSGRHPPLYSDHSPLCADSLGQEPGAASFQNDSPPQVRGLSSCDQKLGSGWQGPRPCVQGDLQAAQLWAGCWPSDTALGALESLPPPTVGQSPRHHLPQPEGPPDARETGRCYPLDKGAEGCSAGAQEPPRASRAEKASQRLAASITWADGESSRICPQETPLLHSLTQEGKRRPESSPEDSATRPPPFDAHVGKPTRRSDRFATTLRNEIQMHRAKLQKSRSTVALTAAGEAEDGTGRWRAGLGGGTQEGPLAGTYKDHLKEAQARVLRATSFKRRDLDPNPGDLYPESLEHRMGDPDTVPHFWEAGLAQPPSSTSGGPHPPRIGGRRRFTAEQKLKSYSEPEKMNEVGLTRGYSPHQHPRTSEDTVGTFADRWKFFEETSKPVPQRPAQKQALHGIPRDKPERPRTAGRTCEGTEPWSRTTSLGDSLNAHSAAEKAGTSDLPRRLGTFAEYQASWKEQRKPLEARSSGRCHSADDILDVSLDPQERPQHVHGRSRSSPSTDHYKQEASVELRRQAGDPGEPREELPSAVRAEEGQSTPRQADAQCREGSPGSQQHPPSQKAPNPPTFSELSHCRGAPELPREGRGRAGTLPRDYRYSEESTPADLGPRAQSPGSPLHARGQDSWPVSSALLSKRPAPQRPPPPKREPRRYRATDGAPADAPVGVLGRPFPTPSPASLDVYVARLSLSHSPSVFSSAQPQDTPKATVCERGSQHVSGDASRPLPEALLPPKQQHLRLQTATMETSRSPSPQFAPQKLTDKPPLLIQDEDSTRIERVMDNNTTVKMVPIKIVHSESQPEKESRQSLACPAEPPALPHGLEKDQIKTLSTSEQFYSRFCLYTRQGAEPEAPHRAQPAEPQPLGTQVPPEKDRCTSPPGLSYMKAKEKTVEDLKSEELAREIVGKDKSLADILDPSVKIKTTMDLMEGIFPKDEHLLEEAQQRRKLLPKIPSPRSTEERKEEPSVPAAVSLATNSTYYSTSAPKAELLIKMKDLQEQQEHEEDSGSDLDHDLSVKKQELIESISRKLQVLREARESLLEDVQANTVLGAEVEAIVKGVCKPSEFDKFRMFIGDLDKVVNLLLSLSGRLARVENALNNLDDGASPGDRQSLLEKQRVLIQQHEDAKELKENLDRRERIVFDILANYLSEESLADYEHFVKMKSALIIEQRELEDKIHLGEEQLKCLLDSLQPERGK

Take “Scrib Scrib-C, 1235-1630 (from UniProt Q14160-1) Scrib-C S1508A”: the “binding against the reference” value was “weaker”.
